Source: US20130122008A1, “Anti-IL 1- ß Antibody Combination Therapy” (NOVARTIS AG, priority 2009, published 2013)
“Also recorded” adds a separate entry of the source.

Assays:
Type in all cases: in vivo, human
[1] = test system: patients with type 2 diabetes mellitus (T2DM); assay: High sensitive C-reactive protein (hsCRP) in clinical study of ACZ885 in T2DM patients on metformin; conditions: single i.v. dose 0.03, 0.1, 0.3, 1.5 mg/kg, Week 4, on stable metformin
Method: CRP is one of the “acute phase” proteins, the serum or protein levels of which rise during general, nonspecific response to infectious and non-infectious inflammatory processes such as rheumatoid arthritis, cardiovascular disease and peripheral vascular disease. CRP is synthesized in the liver and is present in trace amounts in serum or plasma. The C-Reactive Protein HS assay is performed at Covance Central Laboratory Services by immunonephelometry using the Siemens BNII Nephelometer. Polystyrene particles coated with monoclonal antibodies to CRP are agglutinated when mixed with samples containing CRP. The intensity of the scattered light in the nephelometer depends on the CRP content of the sample and therefore the CRP concentration can be determined versus dilutions of a standard of a known concentration The method has an inter-assay precision of 2.1-5.7% CV, and an intra-assay precision of 2.3-4.4% (determined by assaying 10 replicate assays of a sample then evaluating the coefficient of variation). CRP accuracy is evaluated by comparison with College of American Pathologists (CAP) Cardiac Risk Survey. A multi center, randomized, double blind, placebo-controlled, dose escalation study of the safety, tolerability, pharmacokinetics and pharmacodynamics of ACZ885 administered intravenously to patients with type 2 diabetes mellitus. […]

[2] = test system: patients with type 2 diabetes mellitus (T2DM); assay: Plasma glucose (fasting and OGTT) in clinical study of ACZ885 in T2DM patients on metformin
Method: The glucose assay is a hexokinase enzymatic method. Hexokinase catalyzes the phosphorylation of glucose with adenosine triphosphate. The glucose-6-phosphate is then oxidized to 6-phosphogluconate in the presence of NAD by the enzyme glucose-6-phosphate dehydrogenase. The amount of NADPH formed during the reaction is equivalent to the amount of D-glucose in the specimen and is measured photometrically by the increase in absorbance. The method has an inter-assay precision of 5.1-6.2% CV, and an intra-assay precision of 1.7-2.5% (determined by assaying 50 replicate assays of a sample then evaluating the coefficient of variation). The method is specific for glucose; no other carbohydrate is oxidized. A multi center, randomized, double blind, placebo-controlled, dose escalation study of the safety, tolerability, pharmacokinetics and pharmacodynamics of ACZ885 administered intravenously to patients with type 2 diabetes mellitus. The aim of the study is to compare the pharmacokinetic and pharmacodynamic effects of five doses (i.v. administration) of ACZ885 with placebo in patients with type 2 diabetes mellitus (T2DM). […] OGTT was administered at Baseline, 4 and 12 wk post-dose. The subsequent cohorts were included in the evaluation of pharmacodynamic, pharmacokinetis, pharmacogenomics and pharmacogenetics. • Cohort 2 (n=90; 1:1=ACZ885:Plb): received a single dose of ACZ885 (10 mg/kg) or placebo. • Cohort 3 (n=96) received a single dose of ACZ885 0.1, 0.3, 1.5 mg/kg or placebo (1:1:1:1). • Cohort 4 (n=30; 2:1=ACZ885:P1b) received a single dose of ACZ885 (0.03 mg/kg) or placebo. The study was designed to follow the patients for 24 weeks (168 days) after the single intravenous (i.v.) administration. An analysis of covariance (ANCOVA) with treatment as the classification variable and baseline as the covariate will be used for the comparison of treatments with respect to these parameters.

[3] = test system: patients with type 2 diabetes mellitus (T2DM); assay: Proinsulin in clinical study of ACZ885 in T2DM patients on metformin; conditions: Week 4 post-dose, versus placebo
Method: A multi center, randomized, double blind, placebo-controlled, dose escalation study of the safety, tolerability, pharmacokinetics and pharmacodynamics of ACZ885 administered intravenously to patients with type 2 diabetes mellitus. The aim of the study is to compare the pharmacokinetic and pharmacodynamic effects of five doses (i.v. administration) of ACZ885 with placebo in patients with type 2 diabetes mellitus (T2DM). […] OGTT was administered at Baseline, 4 and 12 wk post-dose. The subsequent cohorts were included in the evaluation of pharmacodynamic, pharmacokinetis, pharmacogenomics and pharmacogenetics. • Cohort 2 (n=90; 1:1=ACZ885:Plb): received a single dose of ACZ885 (10 mg/kg) or placebo. • Cohort 3 (n=96) received a single dose of ACZ885 0.1, 0.3, 1.5 mg/kg or placebo (1:1:1:1). • Cohort 4 (n=30; 2:1=ACZ885:P1b) received a single dose of ACZ885 (0.03 mg/kg) or placebo. The study was designed to follow the patients for 24 weeks (168 days) after the single intravenous (i.v.) administration. An analysis of covariance (ANCOVA) with treatment as the classification variable and baseline as the covariate will be used for the comparison of treatments with respect to these parameters.

B1: ACZ885: anti-IL1β antibody, also referred to as Canakinumab; variable domains shown in SEQ ID NO:1 (VH) and SEQ ID NO:2 (VL) (antibody, V domains shown)
VH: QVQLVESGGGVVQPGRSLRLSCAASGFTFSVYGMNWVRQAPGKGLEWVAIIWYDGDNQYYADSVKGRFTISRDNSKNTLYLQMNGLRAEDTAVYYCARDLRTGPFDYWGQGTLVTVSS
VL: EIVLTQSPDFQSVTPKEKVTITCRASQSIGSSLHWYQQKPDQSPKLLIKYASQSFSGVPSRFSGSGSGTDFTLTINSLEAEDAAAYYCHQSSSLPFTFGPGTKVDIK
modifications: homo sapiens
- high-sensitivity C-reactive protein (hsCRP), dose response [1]: linear reduction (dose proportional); also recorded: linear decreasing trend
- OGTT glucose AUC0-4 h / post-prandial glucose ([2]; dose escalation, Week 4 post-dose, versus placebo): Positive trends consistent with dose escalation; also recorded: positive trend at Week 4 post-dose, albeit not statistically significant
- postprandial glucose (OGTT) compared to placebo ([2]; single dose 10 mg/kg, 4 weeks): significant reduction
- peak plasma glucose (PPG) following OGTT ([2]; single i.v. dose 10 mg/kg, Week 4, versus placebo in change from baseline, 10 mg/kg): statistically significant; also recorded: reduction
- fasting plasma glucose (FPG) ([2]; single i.v. dose 10 mg/kg, Week 4 post-dose, 10 mg/kg): decrease
- peak plasma glucose (PPG) following OGTT ([2]; single i.v. dose 10 mg/kg, Week 12): maintained
- plasma AUC glucose following OGTT ([2]; single i.v. dose 10 mg/kg, four weeks after treatment, on stable metformin): statistically significant decreased
- fasting plasma glucose (FPG), course of effect ([2]; single i.v. dose 10 mg/kg, from Week 4 to Week 12): attenuated
- proinsulin [3]: positive trend at Week 4 post-dose, albeit not statistically significant
